Results on 3 sequences are retold here after patent publication US6011020.

For the data set, the target named is bFGF (basic fibroblast growth factor) (UniProt P09038).

Read-outs that look alike come from different tables or passages of the source.

Sequence of bFGF (basic fibroblast growth factor) (P09038 143-288): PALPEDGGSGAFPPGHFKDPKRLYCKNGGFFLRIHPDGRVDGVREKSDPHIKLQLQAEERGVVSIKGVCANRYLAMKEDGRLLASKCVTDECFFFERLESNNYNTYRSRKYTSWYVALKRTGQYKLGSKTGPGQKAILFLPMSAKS

The Kd is a measure of binding affinity in units of concentration. A lower Kd goes with a tighter complex. Turning to GGGCTTTGTAAAACCCCGC [225t3-Chol], the Kd (3'-tetraethyleneglycol cholesterol, binding assay with 5'-32P-labeled conjugate, assay type not stated) stood at 1 nM.
As to GGGCTTTGTAAAACCCCGC [225T3], the Kd (reference ligand, same affinity as PEG and cholesterol conjugates, binding assay type not stated) amounted to 1 nM.
GGGCTTTGTAAAACCCCGC [225T3N-PEG-3400] registered an equilibrium dissociation constant (Kd) (3'-amino-modifier C7 conjugated to PEG 3400 [3' end after position 19: NN = non-nucleotide 3'-amino-modifier C7 and PEG 3400, left out], binding assay with 5'-32P-labeled conjugate, assay type not stated) of 1 nM.
